Laboratory results taken from US20200270310A1, “MAFG AS A POTENTIAL THERAPEUTIC TARGET TO RESTORE CHEMOSENSITIVITY IN PLATINUM-RESISTANT CANCER CELLS” (FUNDACÓIN PARA LA INVESTIGACIÓN BIOMÉDICA DEL HOSPITAL …, priority 2017, published 2020).
Entries after “also recorded” stand apart in the source; their conditions may differ.

B1: GCGGATGAAGACTGGTGTCGATGCATGTGTAGTGCATTTCGAGCCGTTCTATTGGTGTGCCCTAAATACGAGCAAC (nucleic acid)
chain: GCGGATGAAGACTGGTGTCGATGCATGTGTAGTGCATTTCGAGCCGTTCTATTGGTGTGCCCTAAATACGAGCAAC
modifications: chemistry not given here
notes: DNA aptamer selected against the MAFG protein by SELEX

Key:
[1] = system: H23R cells; test: Viability to CDDP after aptamer transfection (resistance index); format: cell-based, human; details: comparison value for apMAFG6F
Method: FIG. 6. Viability curves combining the best dose of aptamers (25nM) and increasing doses of CDDP. Each experimental group was exposed for 72 h to 6 different CDDP concentrations after aptamers transfection; data were normalized to each untreated control, set to 100% and represent the mean±SD of at least 3 independent experiments performed in quadruplicate at each drug concentration for each cell line analyzed 25nM of aptamers and increasing doses of CDDP in H23S/R cells.
Once identified the best dose of aptamers, cells were transfected with aptamers and treated with increased doses of CDDP to assay viability and ROS production as mentioned above. In parallel, for all the experiments, cells were seeded in 24-well plates for aptamers extraction and confirmation of aptamers transfection.
HEK293 and H23S/R cells were seeded into 96-well plates then transfected with 5, 12.5, 25, 75 and 100 nM of MAFG aptamers or treated with PBS-Mg using Jet Pei PolyPlus transfection reagent (PolyPlus Transfection, USA). The dose of 25 nM aptamer was afterwards used in combination with increased doses of CDDP to assay viability and ROS production as described above. To confirm the aptamer-transfection efficiency cells were seeded in 24-well plates for aptamer isolation and confirmation of aptamer transfection by quantitative analysis. A Myc-DDK-tagged ORF clone of MAFG the negative control pCMV6 were used for in transient transfection (OriGene, USA) in combination with MAFG-aptamers following the same procedure.

[2] = system: human MAFG peptides M1-M10; test: ELONA of aptamers with 10 MAFG peptides; format: binding; details: digoxigenin aptamer 20 nM, 1 μg peptide, absorbance at 405 nm
Method: FIG. 9. Characterization of the interaction of aptamers with MAFG. ELONAS in which the Aptamers bound to digoxigenin (20 nM) were incubated 1 hour at 37° C. with 10 peptides (1 μg) previously attached to the plate overnight. After incubating 1 hour with antidigoxigenin-Peroxidase 1/1000, ABTS was added and at 10 minutes the absorbance at 405 nm was measured.
In order to identify compounds of the invention and starting from the amino acidic sequence of human MAFG (NCBI Reference Sequence: NP_116100.2) of: SEQ ID NO 2: […]); we designed the following 10 peptides (please refer to table below):
Peptide M4, amino acids 49-68 corresponds to the basic MAFG region containing the tyrosine residue (Tyr64), as well as the arginine residue (Arg57) required for binding to the DNA, in addition to a nuclear localization signal.

[3] = system: MAFG; test: Determination of the MAFG amino acids with which the aptamer binds; details: aligned with peptides M4 and M5
Description: FIG. 11. Amino acids of MAFG with which apMNK6F binds (see chA and chB). Interaction zones of apMNK6F aligned with peptides M4 and M5
Moreover, we determined the precise amino acids of MAFG with which apMNK6F binds (see chA and chB of FIG. 11). […] More precisely, the interaction occurs with amino acids 57ARG, 60LYS, 61ASN, 62ARG, 63GLY, 64TYR, 65ALA, 66ALA, 67SER, 68CYS, 69ARG, 70VAL, 71LYS, and 75GLN of the epitope of MAFG comprising amino acids 57 to 75 RTLKNRGYAASCRVKRVTQ (amino acids 57 to 75).

[4] = biological target: T1, MAFG in tumor samples of patients with lung cancer (Homo sapiens, UniProt O15525); test: Aptahistochemistry in NSCLC tumor samples; details: 20 tumor samples classified by MAFG mRNA levels
T1 construct: from tissue; host or cells: Formalin-fixed paraffin-embedded NSCLC tumour sections
T1 sequence (O15525 whole entry): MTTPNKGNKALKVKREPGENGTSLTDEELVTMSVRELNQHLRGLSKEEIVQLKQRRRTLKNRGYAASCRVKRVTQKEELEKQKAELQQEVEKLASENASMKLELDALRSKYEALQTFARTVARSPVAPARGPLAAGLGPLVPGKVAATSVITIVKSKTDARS
Method: The formalin-fixed and paraffin-embedded tissue sections of patients with lung cancer were baked 15 minutes at 60° C. Deparaffinization was performed by two washes of xylene for 10 minutes each. Tissue sections were rehydrated by a sequential wash in 100%, 90%, 80%, 70% ethanol and distilled water for 5 minutes each. Antigen retrieval was achieved by heat treatment in a pressure cooker for 2 minutes in 10 mM citrate buffer (pH 6.5). Endogenous peroxidase activity of tissues was blocked with 0.3% […]. The primary binding reaction was performed with 10 pmol/ml of digoxigenin-conjugated aptamers overnight at room temperature. The secondary binding reaction was performed with anti-digoxigenin conjugated with POD (Roche; 1/200 dilution in TBS) for 45 minutes. Staining was done using the Immunoperoxidase DAB kit (Master Diagnostica), according to the manufacturer's instructions. The sections were counterstained with hematoxylin.
We then took advantage of the aptacytochemistry to perform an aptamer-based histochemistry in 20 tumor samples from our cohort of patients with known mRNA levels of MAFG. […] To determine the correlation between the aptahistochemistry and the mRNA levels of MAFG, we calculated the percentage of cells with positive staining from the total number of cells computed at four different areas randomly selected for each sample.

[5] = system: H23R cells; test: ROS production and viability after aptamer transfection and CDDP treatment; format: cell-based, human
Method: FIG. 7: Viability and ROS production assay in H23R cells after apMAFG6F transfection. Each experimental group was exposed for 72 h to 6 different CDDP concentrations, and data were normalized to each untreated control, set to 100%. The data represent the mean±SD of at least 2 independent experiments performed in duplicate at each drug concentration for each cell line analyzed.
H23/A2780 cells were cultured in 96-well black plates at density of 10,000 cells/well. Cells were treated with 6 different doses of CDDP for 24, 48 and 72 h in RPMI containing 10% FBS. Then treatments were removed and cells were loaded with the fluorescent probe 2′,7′-dichlorodihydrofluorescein diacetate (H2DCFDA) (10 μM) for 45 minutes in RPMI medium (FBS free). Cells were washed twice with RPMI (10% FBS), and fluorescence was recorded in a Fluostar Optima, each hour, over 4 hours period. […] ROS production was calculated dividing the mean H2DCFDA fluorescence by the mean viability. […] All experiments included cells treated with RPMI alone (Basal), and one well without cells as fluorescence basal.
H23/A2780 cells were cultured in 96-well black plates at density of 10,000 cells/well. […] Cells were washed twice with RPMI (10% FBS), and fluorescence was recorded in a Fluostar Optima at 520 nm after excitation at 485 nm. […] ROS production was calculated dividing the mean H2DCFDA fluorescence by the mean viability. […]

Molecule | CDDP resistance index without aptamer [1] | interaction of aptamers with the 10 MAFG peptides by ELONA [2] | interaction zone of the aptamer on MAFG [3] | percentage of positive cells in samples with higher MAFG levels [4] | cell viability after aptamer transfection and CDDP ([5]; measured in parallel to ROS) | ROS production after aptamer transfection and CDDP ([5]; resistant cells carrying aptamer vs untransfected, p<0.005 at 4 μg/ml CDDP)
[NH2][Pt]([NH2])([Cl])[Cl] [CDDP, Cisplatin] | 2.63 |  |  |  |  | 
B1 |  | recognized peptide M4 | interaction occurs mainly with peptide M4 | significant increment in the percentage of positive cells | decrease of cell viability; also recorded: decrease in cell viability | increase of ROS production; also recorded: linear dose-response relationship
